The text below walks through data of patent US20200157212A1 (Pfizer, published 2020).

Assay [1] addresses T1, Human ROBO2 KSR mutant overexpressed on HEK293 cells (human, UniProt Q9HCK4 22-1378).
T1 construct: R100K and K102R already in the entry
T1 sequence: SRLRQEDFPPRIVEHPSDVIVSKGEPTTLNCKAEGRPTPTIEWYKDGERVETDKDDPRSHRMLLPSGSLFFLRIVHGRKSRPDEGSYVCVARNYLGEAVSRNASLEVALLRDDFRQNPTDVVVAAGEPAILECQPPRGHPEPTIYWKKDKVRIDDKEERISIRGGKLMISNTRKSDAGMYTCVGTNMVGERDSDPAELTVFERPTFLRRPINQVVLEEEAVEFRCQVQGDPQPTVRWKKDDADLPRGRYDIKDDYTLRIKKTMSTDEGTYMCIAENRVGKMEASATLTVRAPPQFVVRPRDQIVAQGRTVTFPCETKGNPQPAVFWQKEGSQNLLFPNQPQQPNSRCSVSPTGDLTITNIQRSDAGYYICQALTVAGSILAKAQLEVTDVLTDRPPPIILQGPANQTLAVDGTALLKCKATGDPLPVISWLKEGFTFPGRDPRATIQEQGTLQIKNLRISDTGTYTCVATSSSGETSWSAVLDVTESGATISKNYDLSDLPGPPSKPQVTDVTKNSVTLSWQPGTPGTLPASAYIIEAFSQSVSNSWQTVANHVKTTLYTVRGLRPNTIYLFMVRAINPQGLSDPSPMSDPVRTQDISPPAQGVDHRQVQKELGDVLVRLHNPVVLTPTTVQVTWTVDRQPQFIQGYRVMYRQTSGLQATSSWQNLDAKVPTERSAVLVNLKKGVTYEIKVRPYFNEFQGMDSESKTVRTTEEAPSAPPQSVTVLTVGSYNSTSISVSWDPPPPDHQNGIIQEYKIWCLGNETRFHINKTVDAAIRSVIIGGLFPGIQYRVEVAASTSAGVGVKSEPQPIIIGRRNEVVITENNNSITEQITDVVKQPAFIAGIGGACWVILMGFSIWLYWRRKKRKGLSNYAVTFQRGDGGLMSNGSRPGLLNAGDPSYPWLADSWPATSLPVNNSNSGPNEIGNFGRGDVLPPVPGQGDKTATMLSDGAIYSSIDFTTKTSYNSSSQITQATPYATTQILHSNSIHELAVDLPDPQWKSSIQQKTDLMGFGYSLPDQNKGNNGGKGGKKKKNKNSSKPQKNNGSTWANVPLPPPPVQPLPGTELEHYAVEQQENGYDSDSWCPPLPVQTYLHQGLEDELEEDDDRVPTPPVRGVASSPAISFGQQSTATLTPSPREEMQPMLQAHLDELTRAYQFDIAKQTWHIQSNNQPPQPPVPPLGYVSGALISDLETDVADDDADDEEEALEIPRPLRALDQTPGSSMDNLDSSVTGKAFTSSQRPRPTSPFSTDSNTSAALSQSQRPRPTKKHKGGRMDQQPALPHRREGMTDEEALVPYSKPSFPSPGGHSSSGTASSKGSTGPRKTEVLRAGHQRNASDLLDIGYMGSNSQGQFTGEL
The assay is described as follows: flow cytometry on HEK293 cells overexpressing the ROBO2-KSR mutant. As for the experimental part:
Binding of the antibodies was detected using a secondary fluorochrome conjugated anti-human IgG F(ab′)₂ antibody and samples were analyzed on a Fortessa cytometer (BD Biosciences). The fold ROBO2 selectivity was calculated as the geometric mean fluorescence intensity (Geo MFI) with ROBO2 cells/Geo MFI with ROBO1 cells. A fold change higher than 3 was considered to be ROBO2 specific (Table 2, Fold Selectivity). Some affinity matured clones had increased ROBO1 reactivity, for example Abcs 55, CTI-R2-10 and CTIR2-13.
Based upon several criteria, Abcs25 and Abcs35 were selected for further characterization. Using flow cytometry, improvement in the binding EC₅₀ to human ROBO2 relative to the parental 93H2 was evaluated. […] Using HEK293 cells overexpressing either cynomolgus monkey ROBO2 or rat ROBO2, the relative dose-dependent binding of 93H2, Abcs25 and Abcs35 was evaluated as described above. […] Association of ROBO2 Ig1-Ig2-His (ROBO2) was measured over 5 minutes and dissociation was followed for a period of 10 minutes.
RSK specificity for Abcs35, along with 93H2 and Abcs25, also was confirmed in a cell-based binding assay using flow cytometry. […] As described above in Example 3, dose-dependent binding was evaluated.
In general terms: A flow cytometer gives signals particle by particle.

For a further assay, the target named is T2, Human ROBO1 Ig1-Ig2 (human, UniProt Q9Y6N7 68-257).
T2 construct: recombinant protein; also called ROBO1 Ig1-2; Human ROBO1 Ig 1,2
T2 sequence: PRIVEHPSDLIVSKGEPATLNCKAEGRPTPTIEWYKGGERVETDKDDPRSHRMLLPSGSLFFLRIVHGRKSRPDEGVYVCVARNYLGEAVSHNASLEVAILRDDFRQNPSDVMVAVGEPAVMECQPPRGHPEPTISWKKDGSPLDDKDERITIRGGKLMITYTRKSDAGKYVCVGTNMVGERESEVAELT
In words: Octet Red BLI, Abcs35 captured on AHC sensors, ROBO proteins in solution. The text has this: Octet Red AHC (Anti-Human IgG FC) Sensors were loaded with Abcs35. The loaded sensors were then exposed to Human ROBO2 Ig1-2, Rat ROBO2 Ig 1-2, Human ROBO2 Ig1-2 with the RSK mutated to KSR as in ROBO1, or ROBO1 Ig1-2 then the sensors were moved to PBS only, lacking any ROBO1 or 2 proteins. The arrows indicate curves for each of the ROBO proteins tested.
Based upon the crystal structure described above, the following experiments were done to confirm the epitope specificity of 93H2 and/or affinity matured clones Abcs35. Using Octet Red, epitope specificity was confirmed biochemically. Abcs35, at 10 μg/ml, was captured on AHC sensors for 60 seconds. Recombinant human ROBO2 Ig1-Ig2, rat […], human ROBO2 containing the ROBO1 KSR sequence (ROBO2-KSR mutant), and human ROBO1 Ig1-Ig2, prepared at 100 nM, were used to interact with captured Abcs35. Association time was 100 seconds then dissociation was followed for 20 seconds. Abcs35 specifically bound human and rat ROBO2 but not human ROBO1 or the ROBO2-KSR mutant protein (FIG. 2).

B1: Abcs35 (antibody, human IgG1, kappa)
heavy: EVQLVQSGAEVKKPGASVKVSCKASGYTFTGYYMHWVRQAPGQGLEWMGWINPKNGDTEFPQKFQGRVTMTRDTSITTAYMDLSRLRSDDTAVYYCARESGDDAFDIWGQGTMVTVSSASTKGPSVFPLAPSSKSTSGGTAALGCLVKDYFPEPVTVSWNSGALTSGVHTFPAVLQSSGLYSLSSVVTVPSSSLGTQTYICNVNHKPSNTKVDKKVEPKSCDKTHTCPPCPAPEAAGAPSVFLFPPKPKDTLMISRTPEVTCVVVDVSHEDPEVKFNWYVDGVEVHNAKTKPREEQYNSTYRVVSVLTVLHQDWLNGKEYKCKVSNKALPAPIEKTISKAKGQPREPQVYTLPPSREEMTKNQVSLTCLVKGFYPSDIAVEWESNGQPENNYKTTPPVLDSDGSFFLYSKLTVDKSRWQQGNVFSCSVMHEALHNHYTQKSLSLSPGK
light: DIVMTQSPSSLSASVGDRVTITCRASQSISSYLNWYQQKPGKAPKLLIYAASSLQSGVPSRFSGSGSGTDFTLTISSLQPEDFATYYCQQSVGLFFGGGTKVEIKRTVAAPSVFIFPPSDEQLKSGTASVVCLLNNFYPREAKVQWKVDNALQSGNSQESVTEQDSKDSTYSLSSTLTLSKADYEKHKVYACEVTHQGLSSPVTKSFNRGEC
notes: fully human IgG1; VH of Ab96 with VL of Ab123
In the case of B1, the binding result (in assay [1]; with Human ROBO1 Ig1-Ig2) was “no binding” in each case.
